The target in experiment [1] is human C1, P02745;P02746;P02747. Kind of experiment: HS-AFM. To be noted: CL domain anchored onto a Ni2+-coated mica surface using the C-terminal hexahistidine tag; count in 10 different scanning areas; parent: est. 150; read off a plot.
For experiment [2], the target named is human C1q, P02745;P02746;P02747. Kind of experiment: HS-AFM. To be noted: CL domain anchored onto a Ni2+-coated mica surface using the C-terminal hexahistidine tag; count in 10 different scanning areas; parent: est. 88; read off a plot.

Consider “human Cκ domain (from UniProt P01834) E194A”, for which the values for the response in experiment [1] and in experiment [2] were 55 molecules and 19 molecules, respectively.

On to “human Cκ domain (from UniProt P01834) K206A”, for which the response in experiment [1] amounted to 160 molecules; in experiment [2], 83 molecules.

The record behind these values is publication PMC11245854.
